According to PMC7066243:

Tests used:
[1] = target: T1, ether-a-go-go 1 voltage-gated potassium channel (hEAG1) (human) (UniProt O95259)
T1 sequence: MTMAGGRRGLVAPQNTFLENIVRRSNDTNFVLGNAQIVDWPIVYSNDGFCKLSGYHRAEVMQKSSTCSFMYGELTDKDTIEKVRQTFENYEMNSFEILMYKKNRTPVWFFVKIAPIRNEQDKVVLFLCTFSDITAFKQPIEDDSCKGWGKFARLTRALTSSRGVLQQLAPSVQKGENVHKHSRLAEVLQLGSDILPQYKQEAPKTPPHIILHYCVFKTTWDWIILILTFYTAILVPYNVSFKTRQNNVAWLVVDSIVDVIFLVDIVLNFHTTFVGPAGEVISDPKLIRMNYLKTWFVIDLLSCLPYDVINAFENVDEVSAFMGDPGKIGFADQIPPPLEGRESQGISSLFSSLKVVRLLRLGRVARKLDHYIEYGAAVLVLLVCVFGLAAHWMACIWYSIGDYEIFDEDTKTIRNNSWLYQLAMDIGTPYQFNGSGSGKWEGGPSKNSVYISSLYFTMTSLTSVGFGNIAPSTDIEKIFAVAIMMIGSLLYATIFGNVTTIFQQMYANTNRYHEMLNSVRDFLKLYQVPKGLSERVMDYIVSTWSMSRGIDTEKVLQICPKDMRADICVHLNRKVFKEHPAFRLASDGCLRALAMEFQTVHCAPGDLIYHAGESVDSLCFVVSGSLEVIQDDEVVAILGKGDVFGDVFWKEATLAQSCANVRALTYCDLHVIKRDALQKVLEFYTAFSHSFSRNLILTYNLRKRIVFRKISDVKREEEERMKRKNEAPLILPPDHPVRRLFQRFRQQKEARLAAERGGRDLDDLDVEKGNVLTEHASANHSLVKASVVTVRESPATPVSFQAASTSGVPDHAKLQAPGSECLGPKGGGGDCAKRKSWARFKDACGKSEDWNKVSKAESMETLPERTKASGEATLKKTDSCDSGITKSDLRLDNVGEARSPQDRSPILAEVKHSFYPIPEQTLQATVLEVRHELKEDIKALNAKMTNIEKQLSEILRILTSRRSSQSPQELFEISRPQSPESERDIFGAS

[2] = target: T1, ether-a-go-go 1 voltage-gated potassium channel (hEAG1) (human); remark: listed apart in the source

Substance | IC50 of inhibition of hEAG1 current (two-electrode voltage clamp, Xenopus laevis oocytes) [1] [µM] | inhibition of hEAG1 current at 5 µM (two-electrode voltage clamp, Xenopus laevis oocytes) [2] [%]
recombinant collinein-1 (enzyme) | 2.5 | –
gyroxin_B1.3 (from UniProt B0FXM1 25-262) (enzyme) | – | 58
mutant collinein-1 (His43Arg) (enzyme) | 4.3 | –
native collinein-1 (enzyme) | 4.2 | –
BjSP (from UniProt Q5W959 25-258) (enzyme) | – | 9.2
